Assays:
HeLa Kyoto [1] = experiment: thermal stability score vs G1/S (z-score of summed log2 fold changes over temperatures); higher = more thermally stable than in G1/S
HeLa Kyoto [2] = experiment: solubility change mitosis vs G1/S (difference of NP-40 vs SDS log2 ratios) (log2 ratio difference); higher = more soluble in mitosis
HeLa Kyoto [3] = experiment: melting temperature (median over replicates), in situ; higher = more thermally stable
HeLa Kyoto [4] = experiment: solubility in G1/S (NP-40 vs SDS abundance) (log2 ratio); higher = more soluble; details: cell cycle stage: G1/S
[5] = cell cycle stage: early G1 (4.5 h after nocodazole release)
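Wherever melting temperature (median over replicates), in situ is given: HeLa Kyoto cells synchronized by double thymidine or nocodazole block, proteins quantified by TMT10plex mass spectrometry, three independent biological replicates.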
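Wherever solubility change mitosis vs G1/S (difference of NP-40 vs SDS log2 ratios) is given: synchronized HeLa Kyoto cells (double thymidine block for G1/S, nocodazole release for mitosis), protein amounts in NP-40 versus SDS lysates quantified by mass spectrometry, three biological replicates.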
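Wherever solubility in G1/S (NP-40 vs SDS abundance) is given: HeLa Kyoto cells arrested at G1/S by double thymidine block, proteins quantified by TMT10plex mass spectrometry in mild NP-40 versus SDS extracts, three biological replicates.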
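Wherever thermal stability score vs G1/S (z-score of summed log2 fold changes over temperatures) is given: synchronized HeLa Kyoto cells, proteins quantified by TMT10plex mass spectrometry, three biological replicates, mitosis taken 0.5 h after nocodazole release, G1/S directly after double thymidine block.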

Row | Sequence | thermal stability score (HeLa Kyoto [1]; [5]) | thermal stability score (HeLa Kyoto [1]; cell cycle stage: mitosis) | solubility change mitosis (log2) (HeLa Kyoto [2]) | melting temperature (HeLa Kyoto [3]; cell cycle stage: G1/S) | melting temperature (HeLa Kyoto [3]; cell cycle stage: mitosis) | solubility in G1/S (log2) (HeLa Kyoto [4])
1 | MAAFSKYLTARNSSLAGAAFLLLCLLHKRRRALGLHGKKSGKPPLQNNEKEGKKERAVVDKVFFSRLIQILKIMVPRTFCKETGYLVLIAVMLVSRTYCDVWMIQNGTLIESGIIGRSRKDFKRYLLNFIAAMPLISLVNNFLKYGLNELKLCFRVRLTKYLYEEYLQAFTYYKMGNLDNRIANPDQLLTQDVEKFCNSVVDLYSNLSKPFLDIVLYIFKLTSAIGAQGPASMMAYLVVSGLFLTRLRRPIGKMTITEQKYEGEYRYVNSRLITNSEEIAFYNGNKREKQTVHSVFRKLVEHLHNFILFRFSMGFIDSIIAKYLATVVGYLVVSRPFLDLSHPRHLKSTHSELLEDYYQSGRMLLRMSQALGRIVLAGREMTRLAGFTARITELMQVLKDLNHGKYERTMVSQQEKGIEGVQVIPLIPGAGEIIIADNIIKFDHVPLATPNGDVLIRDLNFEVRSGANVLICGPNGCGKSSLFRVLGELWPLFGGRLTKPERGKLFYVPQRPYMTLGTLRDQVIYPDGREDQKRKGISDLVLKEYLDNVQLGHILEREGGWDSVQDWMDVLSGGEKQRMAMARLFYHKPQFAILDECTSAVSVDVEGYIYSHCRKVGITLFTVSHRKSLWKHHEYYLHMDGRGNYEFKQITEDTVEFGS [ABCD3] | 1.37 | 0.619 | -0.103 | 52.5 °C | 52.3 °C | -0.213
2 | MAAGAAEAAVAAVEEVGSAGQFEELLRLKAKSLLVVHFWAPWAPQCAQMNEVMAELAKELPQVSFVKLEAEGVPEVSEKYEISSVPTFLFFKNSQKIDRLDGAHAPELTKKVQRHASSGSFLPSANEHLKEDLNLRLKKLTHAAPCMLFMKGTPQEPRCGFSKQMVEILHKHNIQFSSFDIFSDEEVRQGLKAYSSWPTYPQLYVSGELIGGLDIIKELEASEELDTICPKAPKLEERLKVLTNKASVMLFMKGNKQEAKCGFSKQILEILNSTGVEYETFDILEDEEVRQGLKAYSNWPTYPQLYVKGELVGGLDIVKELKENGELLPILRGEN [GLRX3] | 2.12 | 1.6 | -0.111 | 49.6 °C | 49.9 °C | 0.354
3 | MAAGFGRCCRVLRSISRFHWRSQHTKANRQREPGLGFSFEFTEQQKEFQATARKFAREEIIPVAAEYDKTGEYPVPLIRRAWELGLMNTHIPENCGGLGLGTFDACLISEELAYGCTGVQTAIEGNSLGQMPIIIAGNDQQKKKYLGRMTEEPLMCAYCVTEPGAGSDVAGIKTKAEKKGDEYIINGQKMWITNGGKANWYFLLARSDPDPKAPANKAFTGFIVEADTPGIQIGRKELNMGQRCSDTRGIVFEDVKVPKENVLIGDGAGFKVAMGAFDKTRPVVAAGAVGLAQRALDEATKYALERKTFGKLLVEHQAISFMLAEMAMKVELARMSYQRAAWEVDSGRRNTYYASIAKAFAGDIANQLATDAVQILGGNGFNTEYPVEKLMRDAKIYQIYEGTSQIQRLIVAREHIDKYKN [ACADM] | -1.04 | -2.26 | -0.0323 | 54.7 °C | 54.7 °C | 0.248
4 | MAAGGGGGSSKASSSSASSAGALESSLDRKFQSVTNTMESIQGLSSWCIENKKHHSTIVYHWMKWLRRSAYPHRLNLFYLANDVIQNCKRKNAIIFRESFADVLPEAAALVKDPSVSKSVERIFKIWEDRNVYPEEMIVALREALSTTFKTQKQLKENLNKQPNKQWKKSQTSTNPKAALKSKIVAEFRSQALIEELLLYKRSEDQIELKEKQLSTMRVDVCSTETLKCLKDKTGGKKFSKEFEEASSKLEEFVNGLDKQVKNGPSLTEALENAGIFYEAQYKEVKVVANAYKTFANRVNNLKKKLDQLKSTLPDPEESPVPSPSMDAPSPTGSESPFQGMGGEESQSPTMESEKSATPEPVTDNRDVEDMELSDVEDDGSKIIVEDRKEKPAEKSAVSTSVPTKPTENISKASSCTPVPVTMTATPPLPKPVNTSLSPSPALALPNLANVDLAKISSILSSLTSVMKNTGVSPASRPSPGTPTSPSNLTSGLKTPAPATTTSHNPLANILSKVEITPESILSALSKTQTQSAPALQGLSSLLQSVTGNPVPASEAASQSTSASPANTTVSTIKGRNLPSSAQPFIPKSFNYSPNSSTSEVSSTSASKASIGQSPGLPSTTFKLPSNSLGFTATHNTSPAAPPTEVTICQSSEVSKPKLESESTSPSLEMKIHNFLKGNPGFSGLNLNIPILSSLGSSAPSESHPSDFQRGPTSTSIDNIDGTPVRDERSGTPTQDEMMDKPTSSSVDTMSLLSKIISPGSSTPSSTRSPPPGRDESYPRELSNSVSTYRPFGLGSESPYKQPSDGMERPSSLMDSSQEKFYPDTSFQEDEDYRDFEYSGPPPSAMMNLEKKPAKSILKSSKLSDTTEYQPILSSYSHRAQEFGVKSAFPPSVRALLDSSENCDRLSSSPGLFGAFSVRGNEPGSDRSPSPSKNDSFFTPDSNHNSLSQSTTGHLSLPQKQYPDSPHPVPHRSLFSPQNTLAAPTGHPPTSGVEKVLASTISTTSTIEFKNMLKNASRKPSDDKHFGQAPSKGTPSDGVSLSNLTQPSLTATDQQQQEEHYRIETRVSSSCLDLPDSTEEKGAPIETLGYHSASNRRMSGEPIQTVESIRVPGKGNRGHGREASRVGWFDLSTSGSSFDNGPSSASELASLGGGGSGGLTGFKTAPYKERAPQFQESVGSFRSNSFNSTFEHHLPPSPLEHGTPFQREPVGPSSAPPVPPKDHGGIFSRDAPTHLPSVDLSNPFTKEAALAHAAPPPPPGEHSGIPFPTPPPPPPPGEHSSSGGSGVPFSTPPPPPPPVDHSGVVPFPAPPLAEHGVAGAVAVFPKDHSSLLQGTLAEHFGVLPGPRDHGGPTQRDLNGPGLSRVRESLTLPSHSLEHLGPPHGGGGGGGSNSSSGPPLGPSHRDTISRSGIILRSPRPDFRPREPFLSRDPFHSLKRPRPPFARGPPFFAPKRPFFPPRY [RPRD2] | 2.07 | 4.95 | 0.0816 | 48 °C | 49.2 °C | -0.0214
5 | MAAGGGGSCDPLAPAGVPCAFSPHSQAYFALASTDGHLRVWETANNRLHQEYVPSAHLSGTCTCLAWAPARLQAKESPQRKKRKSEAVGMSNQTDLLALGTAVGSILLYSTVKGELHSKLISGGHDNRVNCIQWHQDSGCLYSCSDDKHIVEWNVQTCKVKCKWKGDNSSVSSLCISPDGKMLLSAGRTIKLWVLETKEVYRHFTGHATPVSSLMFTTIRPPNESQPFDGITGLYFLSGAVHDRLLNVWQVRSENKEKSAVMSFTVTDEPVYIDLTLSENKEEPVKLAVVCRDGQVHLFEHILNGYCKKPLTSNCTIQIATPGKGKKSTPKPIPILAAGFCSDKMSLLLVYGSWFQPTIERVALNSREPHMCLVRDISNCWAPKVETAITKVRTPVMNSEAKVLVPGIPGHHAAIKPAPPQTEQVESKRKSGGNEVSIEERLGAMDIDTHKKGKEDLQTNSFPVLLTQGLESNDFEMLNKVLQTRNVNLIKKTVLRMPLHTIIPLLQELTKRLQGHPNSAVLMVQWLKCVLTVHASYLSTLPDLVPQLGTLYQLMESRVKTFQKLSHLHGKLILLITQVTASEKTKGATSPGQKAKLVYEEESSEEESDDEIADKDSEDNWDEDEEESESEKDEDVEEEDEDAEGKDEENGEDRDTASEKELNGDSDLDPENESEEE [WDR43] | -1.7 | -6.5 | 0.783 | 58.6 °C | 55.7 °C | -1.29
6 | MAAGIVASRRLRDLLTRRLTGSNYPGLSISLRLTGSSAQEEASGVALGEAPDHSYESLRVTSAQKHVLHVQLNRPNKRNAMNKVFWREMVECFNKISRDADCRAVVISGAGKMFTAGIDLMDMASDILQPKGDDVARISWYLRDIITRYQETFNVIERCPKPVIAAVHGGCIGGGVDLVTACDIRYCAQDAFFQVKEVDVGLAADVGTLQRLPKVIGNQSLVNELAFTARKMMADEALGSGLVSRVFPDKEVMLDAALALAAEISSKSPVAVQSTKVNLLYSRDHSVAESLNYVASWNMSMLQTQDLVKSVQATTENKELKTVTFSKL [ECH1] | -1.52 | -2.22 | -0.00393 | 53.4 °C | 53.5 °C | 0.165
7 | MAAGTSSYWEDLRKQARQLENELDLKLVSFSKLCTSYSHSSTRDGRRDRYSSDTTPLLNGSSQDRMFETMAIEIEQLLARLTGVNDKMAEYTNSAGVPSLNAALMHTLQRHRDILQDYTHEFHKTKANFMAIRERENLMGSVRKDIESYKSGSGVNNRRTELFLKEHDHLRNSDRLIEETISIAMATKENMTSQRGMLKSIHSKMNTLANRFPAVNSLIQRINLRKRRDSLILGGVIGICTILLLLYAFH [GOSR1] | -0.21 | -0.667 | 0.02 | 54.7 °C | 52 °C | 0.28
8 | MAAGVDCGDGVGARQHVFLVSEYLKDASKKMKNGLMFVKLVNPCSGEGAIYLFNMCLQQLFEVKVFKEKHHSWFINQSVQSGGLLHFATPVDPLFLLLHYLIKADKEGKFQPLDQVVVDNVFPNCILLLKLPGLEKLLHHVTEEKGNPEIDNKKYYKYSKEKTLKWLEKKVNQTVAALKTNNVNVSSRVQSTAFFSGDQASTDKEEDYIRYAHGLISDYIPKELSDDLSKYLKLPEPSASLPNPPSKKIKLSDEPVEAKEDYTKFNTKDLKTEKKNSKMTAAQKALAKVDKSGMKSIDTFFGVKNKKKIGKV [RNASEH2B] | -0.0838 | 0.982 | -0.0965 | 48.8 °C | 49.7 °C | 0.517
9 | MAAIPPDSWQPPNVYLETSMGIIVLELYWKHAPKTCKNFAELARRGYYNGTKFHRIIKDFMIQGGDPTGTGRGGASIYGKQFEDELHPDLKFTGAGILAMANAGPDTNGSQFFVTLAPTQWLDGKHTIFGRVCQGIGMVNRVGMVETNSQDRPVDDVKIIKAYPSG [PPIL1] | -0.554 | -0.941 | 0.414 | 49.1 °C | 50.1 °C | 0.351
10 | MAAIRMGKLTTMPAGLIYASVSVHAAKQEESKKQLVKPEQLPIYTAPPLQSKYVEEQPGHLQMGFASIRTATGCYIGWCKGVYVFVKNGIMDTVQFGKDAYVYLKNPPRDFLPKMGVITVSGLAGLVSARKGSKFKKITYPLGLATLGATVCYPVQSVIIAKVTAKKVYATSQQIFGAVKSLWTKSSKEESLPKPKEKTKLGSSSEIEVPAKTTHVLKHSVPLPTELSSEAKTKSESTSGATQFMPDPKLMDHGQSHPEDIDMYSTRS [APOOL] | -1.29 | -2.35 | -0.104 | 53.9 °C | 57.3 °C | 0.166
11 | MAAKSQPNIPKAKSLDGVTNDRTASQGQWGRAWEVDWFSLASVIFLLLFAPFIVYYFIMACDQYSCALTGPVVDIVTGHARLSDIWAKTPPITRKAAQLYTLWVTFQVLLYTSLPDFCHKFLPGYVGGIQEGAVTPAGVVNKYQINGLQAWLLTHLLWFANAHLLSWFSPTIIFDNWIPLLWCANILGYAVSTFAMVKGYFFPTSARDCKFTGNFFYNYMMGIEFNPRIGKWFDFKLFFNGRPGIVAWTLINLSFAAKQRELHSHVTNAMVLVNVLQAIYVIDFFWNETWYLKTIDICHDHFGWYLGWGDCVWLPYLYTLQGLYLVYHPVQLSTPHAVGVLLLGLVGYYIFRVANHQKDLFRRTDGRCLIWGRKPKVIECSYTSADGQRHHSKLLVSGFWGVARHFNYVGDLMGSLAYCLACGGGHLLPYFYIIYMAILLTHRCLRDEHRCASKYGRDWERYTAAVPYRLLPGIF [DHCR7] | 0.148 | -0.18 | -0.0769 | 51 °C | 50.7 °C | -0.604
